These are literature values, as cited in article PMC2289845.

The pKd is the negative decadic logarithm of the Kd, by convention in mol/L.

For this series, the target named is KIX KIX (UniProt P45481).

pKd: −log10 of the molar value.

Sequence of UniProt P45481 (P45481 586-665): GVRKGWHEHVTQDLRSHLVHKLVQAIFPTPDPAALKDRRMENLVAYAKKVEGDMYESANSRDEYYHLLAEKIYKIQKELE

pKID KID (from UniProt P15337): the pKd is 5.89.
